Experimental data published in PMC11253692.

Target: TGF-β1 (human, UniProt P01137 279-390)
Assay: ELISA

Chain of TGF-β1 (P01137 279-390): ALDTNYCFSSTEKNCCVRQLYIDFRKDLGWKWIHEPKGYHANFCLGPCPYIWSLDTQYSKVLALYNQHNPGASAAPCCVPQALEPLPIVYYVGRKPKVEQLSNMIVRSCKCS

B1: TGF-β1 aptamer (ssDNA)
DNA: CGCTCGGCTTCACGAGATTCGTGTCGTTGTGTCCTGTACCCGCCTTGACCAGTCACTCTAGAGCATCCGGACTG
modifications: 5'-SH (coupled to PEG-maleimide hydrogel)
For B1, the binding signal was > 60 % bound (highest binding ratio, reached at 4 h).
